Source: the PETadex activity labels

Substrate: BHET
Conditions: 120 h

| Protein | plate clearing |
| --- | --- |
| unnamed (protein) MNEVEPVNKSFLKKLSIGTGVLLVSMNALSWTPSPAPTPDPTPDPTPCQGDCDFTRGPNPTVSSVESSTGPYSVRTQSIASSVSGFGGGTIHYPTNTSGKMGAIAIAPGFLAPESSIIWWGPRLASHGFVVITIATNSVFDQPSSRGTQIGRALDYVISQSNASNSAISGMVDSTRVGAMGWSMGGGGALRLASGDRLSAAIPLAPWHQGGNSFNQLETPTLIIACENDNVAPVDRHASAFYNAIPSTTDKALLEIDGGAHSCANGDGSNDAVLGKYGISWMKRFIDNDLRYDQFLCGPNHAANSAVSEYRETCDY | not clears the plate |
| unnamed (protein) MTTIIAKLAIAASAAVLATAAFAQQQGPEQTAAQLEAGKGPFTVATAKIATPSGYGGGTVYYPTNASGKVGLIVVAPGFTETQSAMNMWGPILASNGFAVINIDTKSTLDQPPARATQMMAALKQVSDLSKTTASPYYNKIDVTRQAVMGHSMGGGGTLVAATANPALKAAIPAAPWSLATKNFPTLAVPTMIFACQSDVIAPVSGHADRFWASFNKQLPSAFAEYAGAGHQCPTSQGGADRKLVFSKLGIAWFKRFVDGDTRYTQFITNDSRLSRFLTNGSF | not clears the plate |
| unnamed (protein) MPKYPFYSQWIVAIGALVFSINASAVTLDEVAATNKLTIKEQSTKIVSTPIASAVAITSPVSTPAVPSNCIADSIITAANLSDTRDKGPFSVAKKAVPRQLANGFGGGTIYYPTNAGGCGLLGGIAVIPGYVSYESSIKWWGPRLASWGFVVITIDTNSIYDDPDSRAAQLSAALDHMLRDNTVGAQIDSTRLGAIGWSMGGGGALQLATKRQTVRAIIPQTPYHDKDYGEMNTPALFITCQNDRIASNKKYSSRFYDKATGAKMKIEIKNGSHFCPSYRFNEILLSKPGIAWMHRYINGDTRFDQFLCSNDNYGNNPRISAYDYKLS | not clears the plate |
| unnamed (protein) MRTAKDFARGNPLARLCILLALAVFPALSHAQTVIFQEPFNVGIGSFTADGTVNGGGTGASMHGRIQGYSTITSPAINTTGFTNLQLAWTQMCLNSDAGEACQLWYSVNNITWDLVYSTPFAPFNSPASIALPAAAAGQSQLRLRFVRLANSFEEVYDVDNISLTGTAGGGGTTSGSTSGGTSGGGGTPCQNGPAPSATSVQGDGPFTVGTYVVPNPSGYKAGTIYYPTNTVSGACTKFAGIVTMPGYQGTQNNLSWLGPRLASNGFVVINVDTNTLSDSPDQRGAEILSALNQLVSLSNASGNPISGKVDSAKLGAMGHSMGGGGTLVAARNAMIKAAIPMAPYHNTTTNFPDVHAPTLVVTCQGDPSAPAATYGRPMYNSLTTEKAYLELTTTDGHLCVMTGYGNKAVQSRYMTSWMKRWLDGDTRYTQFLCGTTSGSNGVTTWADTCPY | not clears the plate |
| unnamed (protein) MTPTLCRPLAAVLTSAAFAALTAVSASALAQTPQEPTEASLNATAGPFSVATESVRAPRGFGGGTIYYPTAAGRYGVVAISPGFTATQSSIAWLGRRMASHGLVVITMNTNSTLDQPASRANQLMAALNHVVSASGAAVQSRADGTRRAVAGHSMGGGGALIAARDNATLRAALPLTPWNTTTDFSGVRVPTLIVGADGDGVASVTRHARPFYASLPNATAKAYGELNSASHFTPNSTNTPIGRYGVTWMKRFVDADTRYSPFLCGAAHLAYATPAVFDRYQNNCPY | not clears the plate |
| unnamed (protein) MSSDKRLLFTLLHRTLLACALTFSAALPACGEEDPKEVTDSSSDDDDETPVDGDTTGDDDPEPMTMKDAGKSSVKDAGKPPPTPAVDAGSTAPKDKDSGTVGGIDAGPAKDAGTVVTPPTTAGDALVRGDAPTEKSASAKGPYAVKTYTSGYPDLPGYLDSTIHYPEGAQPPFAAVVIVPGFVSAQSSIQAWGPFFASHGIVTMTIGTNTPVDQPPMREAALLDALKTVKSENTREGSPLKDKLDLSRLAGMGWSMGGGGALLLGEHNPELKAVIALCPWNPGYSYAKIKMPTLFLAAQADTLAGGQSQGFYSSIPNSVPKILYEIAGADHWHNNDPANLQGAVGRYGLAWLKVFLEGDERYRDLLKVKGPSSSDWQSNVQ | not clears the plate |
| unnamed (protein) MEISNTRQLAVRSRARSRAETGGRKWTIGLGLLLLAAVAHAQTNPYAKGPDPTSSLLNATRGPFSITSTSVSRFVSGFGGGTIYYPTTSGSYAAIAISPGFTATQSSIAWLGQRIASHGFVAITINTNSVYDQPASRATQLMAALRYLTNSSTSAVRSRVDANRLGVAGHSMGGGGALIAARDNPSLKASVPLTAWSTSKNFSTVQVPTLVVGAENDSVAPVSSHSIPFYTSLSSFLEKAYAELNNASHFAPNSTNTPIGRYSVAWVKRFMDNDTRYSPFLCGAPHQSYATSTVFSEYRSTCPY | not clears the plate |
| unnamed (protein) MIRFKTGALTNTISLCLVVALGCGGGETPETSGPPPATQTNPTAQAGATATKPTGTAGAAAPTNTGRPMMTTPPTTTTPTMTTPATAGSAAPAAGSGGTPAATGAGGAPAAEAGSGAAGSAATAGSGAEDEAAAGKGGTEATGDKNHWIRGDDPPADLSGARPGPYKVERYTDGYRNGPAYADSTINYPVDAEPPFALVVVVPGFVSPQSSIASWGPFLASHGIVTMTIGTNLPTDLPETRKDALLDAMQSLKEENTREGSPLKGKLDTSYTATMGWSMGGGGTLLVANENPELKATISLCGWNPGYPYSKIKAPALMFASLGDPLAGGQSQGFYRSIPDETPKMLIEVGAGDHFVANNPASTSGVIGRYGLAWLKVYLEGDERYRKFLLEKPAVP | not clears the plate |
| unnamed (protein) MKTTKGTKIALIAFTLSFSLSAFSGGGGGGNNNGGLPAPNTCTSNCGFETGPNPNLNFVRASRGPLPTRTTVVSRSVDGFGGGTIYYPSNASEEMAAIAVSPGFTATQSSIDWWGPILASHGFVVITIDTNSRFDQPISRGRQLDSALSYLISENSRRNSPISGLVDETRLATMGHSMGGGGALRSASRNRLSAAMPMAPFNVGNNDFNQIRVPTMIMACENDVVAPVGIHARPFYNRIPGSTDKVLLEFNNGPHNCANGESSGNRPLLSTYGVSWMKRFLDKDRRYNQFLCGPNHVANNGISDFRSTCTF | not clears the plate |
| unnamed (protein) MKLTFVPLAITVVATLTCTSVVAKINLVESQVIQISELKKPAESLIDKSAQTAALPIPPSIATCIDDSAISADNLSQAKDNGPFAISSKDIPRQSAIGFGGGTIHYPINASGCGLLAAIAVVPGFVSYESSIKWLGPRLAAWGFVVITINTDSIYDNPDSRARQLSAALDTIISDDNVGSIVDPNRLGAIGWSMGGGGALKLATVRDEVRAIVPLAPYHDKDYGEVSTPTLVIACQFDRIARNKKYGSMFYDKAIGPKMKVELNNASHFCPSYRFNEILLSKPIIAWMQRYINEDERFDKLLCANETYSENPRFSSYDYANCS | not clears the plate |
| unnamed (protein) MRPPCCSAGATWLSRSRSRAAVVLTTLVATVSALLIVSAAPALAAPVPAPTTASLEATNGPLATASYTVPNPSGYGSGTITYPTGSGSYPGVVLMPGYQGTQQNLRWLAPRLASWGFVVVNVGTRTLTDDPESRGDQISAAGTQLLAFSNAVGNPITGKVNGTLGAAGHSMGGGGTMVALRDDARFRAGVPLAPYYQNGNFSSVAKPTFSLTCRSDVAAPGNTYALPWYNSMTRAEKLYVEVPGDHLCPMTGYGNKAKQGKWIVSFFSRWLRGDTRFSPFLCGAEREADRNNAALVTRWMDTCPY | not clears the plate |
| unnamed (protein) MLGVMGWSMGGGGTLITVDDHPELKAAITLCAWNPGQTYRQNQVPTLLFAGTADVLAGGQSQGFYTSIPETTPKMLFEVQGADHFFANTPEGASGQCGKYGTAWLKVFLVGDECYRPFLLEPPSGTSDFRTNLE | not clears the plate |
| unnamed (protein) MPKSDRSTPQPARSQHGGFAKLSLGLTALLMSVLVHAQSNPFERGPEPTVASLEAAAGPYAVQTTQVGKGNSNDYARGTVYYPVANDGQFALIAIVPGYTERQAGVSWWGSRLASHGFVVVTVDTNAPGEFPPSRARALKDALATVVKLSQTSSSPFFGKIDASRQGIMGHSMGGGATLELARSNSKLKAAIPFAPWNSNSKVYTRVKVPTLIISCQRDAVAPVNSHANKFYDSFSATLDKALLEVTGGDHYCASTSASAANKAVVGKYGVAWMKRFLDNDTRYSQFLCGAPHQADLAGPIISSYKDSCPY | clears the plate (z > 3 vs empty vector) |
| unnamed (protein) MERGNHRAKWVIGLGLLALAAAAQSQTNPFQKGPDPTSTLLNATSGPFSVATSSVSSLAAQGFGGGTIYYPSTTGTYAVLAISPGFTATQSSIAWLGRRIATHGFVVITIDTNSTLDQPPSRATQLIAALRHVTDLSNATVRSRVDASRRGVAGHSMGGGGSLIAARDNPSLKAAVPLTAWSTTKVFSTVQVPTLVVGAENDTIASVSSHSIPFYTSLSSSLDKAYAELNNASHLAPNTTNTPIGRYSVAWVKRFMDNDTRYTPFLCGAPHQSYATSAVFSDYRSTCPY | not clears the plate |
| unnamed (protein) MKKNIFKKACLSALVIAFSLSAHSGGGGGDDGGSDQLPLPDSCNSNCGYEVGPNPTLSALEATQGPLSVSASTVSSSVDGFGGGTIYYPNNASQELATIAVAPGFTNTQSAIQWWGPLLASHGYVVITIDTNGRFDNPGSRSLQLDAALSYLISEGNRSSSDISGLVDENRLATMGFSMGGGGTLISASRNRLSAAVPMAPWNTGGNDFDAIGVPTLIFACEDDSTARINSHASPFYNSIPSSTDKAYMEINNGPHNCANGNNGNGNDALLSTYGVSWMKRFLDKDSRYDQFLCGPNHVANSKINEYRDTCNY | not clears the plate |
